What is called Km is the substrate concentration at which the rate is half of its maximum.

This data set relates to CC(=O)Oc1ccc([N+](=O)[O-])cc1. In words: purified protein.

On to “carbonic anhydrase II (CA-II) (Homo sapiens)”, for which the Km stood at 2.52 ± 0.26 mM.

Values taken from paper PMC5784833 (Journal of the American Chemical Society, 2017).
